According to patent US20100196385A1 (AstraZeneca / MedImmune, published 2010):

B1: 9G8 IgG2 VH wt/VL wt (antibody, V domains shown)
VH: QLQLQESGPGLVKPSETLSLSCTVSGGSISSSSSYWGLIRQPPGKGLEWIGSIYYSGSTYYSPSLKSRVSISVDTSKNQFSLKLSSVTAADTAVYFCARQGYGGHPDVFDIWGQGTMVTVSS
VL: SSELTQSPSVSVSPGQTARITCSGDKLGDVYVCWYQQKTGQSPVLVIYEDTKRPSGIPERFSGSNSGNTATLTISGTQVMDEADYYCQAWDSTTAVIFGGGTKLTVL
notes: IgG2, transiently expressed
B2: 17F3 (antibody, IgG2, V domains shown)
VH: QVQLVQSGAEVKKPGASVKVSCKASGYTFTNYGISWVRQAPGQGLEWMGWINAYNGNTNYAQNLQGRVTMTTDTSTNTAYMELRSLRSDDTAVYYCARVAPAAFFDYWDQGTLVTVSS
VL: SYELTQPPSVSVSPGQTASITCSGDKLGDKYVCWYQQKPGQSPVLVIYQDNKRPSGIPERFSGSNSGNTATLIISGTQAMDEADYYCQAWDSSTVFGGGTKLTVL
notes: Fully human; also used where no isotype is printed
B3: 21F7 (antibody, IgG2, V domains shown)
VH: QVQLVQSGAEVKKPGASVKVSCQASGYTFTNYGISWVRQAPGQGLEWMGWINAYNGNTNYAQNLQGRVTMTTDTSTNTAYMELRSLRSDDTAVYYCARVAAAAFFDYWDQGTLVTVSS
VL: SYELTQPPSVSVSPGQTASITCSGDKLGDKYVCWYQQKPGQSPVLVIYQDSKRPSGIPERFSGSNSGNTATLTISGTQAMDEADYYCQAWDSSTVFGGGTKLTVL
notes: as for B2
B4: 12A1 (antibody, IgG4, V domains shown)
VH: QVQLVQSGAEVKRPGASVKVSCKASGYTFTSYGITWVRQAPGQGLEYMGWISTYNGNTDYAQKFQGRVTMTADISTSTAYMELRSLRSDDTAVYYCARERGSYFDYWGQGTLVTVSS
VL: SYELTQPPSVSVSPGQTARITCSGDTLPKKYAYWYQQKSGQAPVLVIYEDIKRPSGIPERFSGSSSGTMATLTISGAQVEDEADYYCFSTDSGGNHKFGGGTKLTVL
notes: as for B2

Assays:
[1] = biological target: T1, full length human DLL4 (human, UniProt Q9NR61 27-685); experiment: FACS binding, HEK293 cells with human DLL4
T1 construct: whole, on cells; also called native DLL4 expressed in HEK293 cells
T1 sequence (Q9NR61 27-685): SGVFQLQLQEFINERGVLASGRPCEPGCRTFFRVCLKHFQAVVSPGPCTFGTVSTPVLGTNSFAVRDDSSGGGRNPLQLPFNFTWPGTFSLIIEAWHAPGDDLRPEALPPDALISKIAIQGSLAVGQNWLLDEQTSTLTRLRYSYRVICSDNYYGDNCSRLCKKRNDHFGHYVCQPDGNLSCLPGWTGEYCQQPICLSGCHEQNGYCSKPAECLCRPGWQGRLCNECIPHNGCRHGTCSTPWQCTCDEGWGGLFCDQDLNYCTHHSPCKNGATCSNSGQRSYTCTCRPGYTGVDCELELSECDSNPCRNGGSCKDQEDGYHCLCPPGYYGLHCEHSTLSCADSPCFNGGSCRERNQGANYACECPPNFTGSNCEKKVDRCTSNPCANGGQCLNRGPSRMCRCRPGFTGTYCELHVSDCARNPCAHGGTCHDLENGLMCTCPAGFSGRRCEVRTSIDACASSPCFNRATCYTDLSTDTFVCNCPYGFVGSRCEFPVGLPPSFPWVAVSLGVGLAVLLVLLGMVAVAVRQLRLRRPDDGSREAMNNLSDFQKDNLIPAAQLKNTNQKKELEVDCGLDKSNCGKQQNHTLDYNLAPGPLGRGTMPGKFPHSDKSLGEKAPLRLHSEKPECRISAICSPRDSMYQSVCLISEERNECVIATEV
Description: (§1) The activity of the mutated antibodies was assessed in two ways: firstly, the ability of the antibodies to block the binding of soluble Notch1/Fc to full length human DLL4 stably expressed in HEK293 cells as described in Example 3 was determined and, secondly, the binding of the antibodies to the same cell line used in the receptor-ligand competition studies was determined. For the binding studies, HEK293 cells stably overexpressing human DLL4 were resuspended in PBS containing 2% FCS at a concentration of 50,000 cells/well and incubated with titrations of antibody (final concentrations 0.01-10 μg/ml) for 1 h at 4° C. The cells were then washed and incubated with 0.31 μg/ml anti-human IgG-Fc-FITC (BD Pharmingen, cat#555786) for 30 minutes at 4° C. Bound […] was detected using FACS analysis. Results of these studies are summarized in Table 23, which show the effects of specific mutations to sequences of 9G8 and 2H10 on the ability of the antibodies to compete with Notch1 for binding to human DLL4 or to bind to human DLL4 relative to unmutated antibodies.

[2] = biological target: T1, full length human DLL4; experiment: FACS competition vs Notch1/Fc, HEK293 cells with human DLL4
Description: Further experiments were performed on selected antibodies using HEK293 cells that were stably transfected with either human, mouse or cynomolgus monkey DLL4 using retroviral constructs. In these experiments, anti-DLL4 antibodies (final concentration: 10-0.01 μg/ml) diluted in PBS containing 2% FCS were added to DLL4-expressing HEK 293 cells (50000 cells/well diluted in PBS containing 2% FCS) and incubated for 1 h at 4° C. Subsequently, Alexa-647 labeled human, rat or APC labeled mouse Notch1/Fc (e.g. R&D Systems, catalog #3647-TK-050, 1057-TK-050, 5267-TK-050, respectively) was added at a final concentration of 0.01-0.5 μg/ml and plates were incubated for a further 2 h at 4° C. prior to washing and reading on a FACSCalibur instrument.
as §1

[3] = biological target: T2, human Jagged1 (human, UniProt P78504 34-1218); experiment: FACS, 5 µg/ml, 293T cells with human Jagged1
T2 construct: whole, on cells
T2 sequence (P78504 34-1218): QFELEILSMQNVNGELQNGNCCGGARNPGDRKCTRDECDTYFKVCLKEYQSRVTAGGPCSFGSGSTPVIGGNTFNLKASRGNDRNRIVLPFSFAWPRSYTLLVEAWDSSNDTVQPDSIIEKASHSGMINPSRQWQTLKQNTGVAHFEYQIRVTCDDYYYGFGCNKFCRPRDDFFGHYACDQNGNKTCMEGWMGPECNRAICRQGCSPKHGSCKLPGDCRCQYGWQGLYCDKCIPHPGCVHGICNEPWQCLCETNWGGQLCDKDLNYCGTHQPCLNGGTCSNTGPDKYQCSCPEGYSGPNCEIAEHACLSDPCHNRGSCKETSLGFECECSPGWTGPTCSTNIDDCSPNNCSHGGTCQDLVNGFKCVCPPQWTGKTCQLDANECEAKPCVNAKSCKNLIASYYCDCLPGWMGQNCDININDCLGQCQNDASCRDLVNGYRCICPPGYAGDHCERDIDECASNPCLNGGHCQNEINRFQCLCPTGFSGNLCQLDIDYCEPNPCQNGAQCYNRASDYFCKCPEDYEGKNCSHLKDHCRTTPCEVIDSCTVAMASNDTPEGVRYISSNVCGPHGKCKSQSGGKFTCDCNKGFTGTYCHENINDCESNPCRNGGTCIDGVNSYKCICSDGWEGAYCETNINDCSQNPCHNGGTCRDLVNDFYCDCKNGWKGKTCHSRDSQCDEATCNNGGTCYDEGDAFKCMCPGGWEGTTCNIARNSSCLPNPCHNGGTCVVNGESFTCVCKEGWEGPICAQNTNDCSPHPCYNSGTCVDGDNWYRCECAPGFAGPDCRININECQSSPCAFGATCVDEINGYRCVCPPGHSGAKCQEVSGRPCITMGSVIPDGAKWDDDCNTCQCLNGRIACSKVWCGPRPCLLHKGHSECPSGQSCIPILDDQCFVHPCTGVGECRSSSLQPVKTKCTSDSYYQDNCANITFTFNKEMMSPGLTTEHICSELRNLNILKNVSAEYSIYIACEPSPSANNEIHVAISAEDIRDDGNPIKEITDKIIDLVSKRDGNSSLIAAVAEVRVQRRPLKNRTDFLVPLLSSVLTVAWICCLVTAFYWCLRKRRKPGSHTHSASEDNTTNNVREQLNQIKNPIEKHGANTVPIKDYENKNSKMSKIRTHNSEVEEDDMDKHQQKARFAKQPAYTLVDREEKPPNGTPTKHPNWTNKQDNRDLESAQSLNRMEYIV
Description: (§2) The ability of the purified antibodies to bind to human Jagged1 and Dll1 was determined by FACS analysis. […] Cells were resuspended in PBS containing 2% FCS and seeded at 50000 cells/well into V-bottomed plates. Anti-DLL4 antibodies diluted in PBS containing 2% FCS were added at a final concentration of 5 or 15 μg/ml and plates were incubated for 1 h at 4° C. […] Data was analyzed by comparing the shift in geometric mean fluorescence in the mock-transfected cells to that observed in the Jagged1- or Dll1-transfected cells and is shown in Tables 16 and 17.

[4] = biological target: T3, human Dll1 (human, UniProt O00548 18-723); experiment: FACS, 15 µg/ml, 293T cells with human Dll1
T3 construct: whole, on cells
T3 sequence (looked up): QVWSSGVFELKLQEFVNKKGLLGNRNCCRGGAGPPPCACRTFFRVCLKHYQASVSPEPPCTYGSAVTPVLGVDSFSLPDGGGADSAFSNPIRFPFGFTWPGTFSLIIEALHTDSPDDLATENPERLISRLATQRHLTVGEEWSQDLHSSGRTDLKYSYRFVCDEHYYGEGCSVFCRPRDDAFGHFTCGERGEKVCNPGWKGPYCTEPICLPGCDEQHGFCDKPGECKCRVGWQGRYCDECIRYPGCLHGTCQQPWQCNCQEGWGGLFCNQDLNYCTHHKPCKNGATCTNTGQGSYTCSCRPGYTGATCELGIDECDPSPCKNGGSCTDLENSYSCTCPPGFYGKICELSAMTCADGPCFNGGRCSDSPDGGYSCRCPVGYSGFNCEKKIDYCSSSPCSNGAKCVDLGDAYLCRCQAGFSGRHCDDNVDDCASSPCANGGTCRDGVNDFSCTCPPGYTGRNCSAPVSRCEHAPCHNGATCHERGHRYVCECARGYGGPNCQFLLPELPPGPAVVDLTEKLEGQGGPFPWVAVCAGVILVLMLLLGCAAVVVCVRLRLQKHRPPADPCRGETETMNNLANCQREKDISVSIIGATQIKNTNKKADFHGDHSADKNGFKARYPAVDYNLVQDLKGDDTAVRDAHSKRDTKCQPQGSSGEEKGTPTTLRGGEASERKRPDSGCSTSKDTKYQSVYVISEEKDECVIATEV
Description: as §2

[5] = biological target: T1, full length human DLL4; experiment: FMAT competition, purified antibody vs Alexa-647 human Notch1/Fc, 293T cells with human DLL4
Description: To discriminate between the purified antibodies based upon their ability to prevent the interaction between full-length recombinant DLL4 and soluble Notch1/Fc, the following assays were performed. Transfected and untransfected 239T cells were reconstituted in PBS containing 2% FCS and 5000 transfected and 17500 non-transfected cells were plated in 30 μl into wells of a 384-well tissue culture plate (Corning Costar, catalog #3712). Subsequently, 30 μl of purified antibodies, serial diluted from 5 μg/ml hybridoma supernatant was added and plates were incubated at 4° C. for 1 h, at which time 20 μl of 100 ng/ml Alexa-647 labeled human Notch1/Fc was added. After a further 3 h incubation at 4° C., the amount of bound Notch1/Fc was determined by reading the fluorescence in each well using an FMAT 8200 instrument (Applied Biosystems).

[6] = biological target: T3, human Dll1; experiment: FACS, 15 µg/ml, 293T cells with human Dll1 vs mock
Description: as §2

[7] = biological target: T1, full length human DLL4; experiment: FMAT competition, supernatant vs Alexa-647 human Notch1/Fc, 293T cells with human DLL4
Description: Transfected and untransfected 239T cells were reconstituted in PBS containing 2% FCS and 5000 transfected and 17500 non-transfected cells were plated in 20 μl into wells of a 384-well tissue culture plate (Corning Costar, catalog #3712). Subsequently, 20 μl of hybridoma supernatant was added and plates were incubated at 4° C. for 1 h, at which time 20 μl of Alexa-647 labeled human Notch1/Fc was added at a final concentration of 6.7 ng/ml. After a further 3 h incubation at 4° C., the amount of bound Notch1/Fc was determined by reading the fluorescence in each well using an FMAT 8200 instrument (Applied Biosystems). Results are expressed as % inhibitions with the minimum inhibition in the assay being determined by the effects of non-DLL4 binding supernatants prepared in a similar way as described in example 2, and the maximum inhibition being defined as the signal obtained in the presence of a saturating concentration of unlabeled Notch1/Fc. N.T.=not tested

[8] = biological target: T2, human Jagged1; experiment: FACS, 5 µg/ml, 293T cells with human Jagged1 vs mock
Description: as §2

[9] = biological target: T1, full length human DLL4; experiment: FMAT, hybridoma supernatant, 293T cells with human DLL4
Description: (§3) Cells diluted in PBS containing 2% FBS were seeded at a density of 3000 expressing and 15000 mock transfected cells per well in 384 well plates (Corning Costar, catalog #3712). Immediately after plating, 15 or 20 μl/well of hybridoma supernatants and 10 μl/well of secondary antibody (Goat anti-human IgG Fc Cy5, final concentration 750 ng/ml) were added and plates incubated for 3 h at room temperature prior to reading the fluorescence on the FMAT 8200 instrument (Applied Biosystems). The binding of human Notch1/Fc chimera (R&D systems, catalog #3647-TK), diluted 1:2 from 2.86 μg/ml was used as a positive control for DLL4 and human Notch3/Fc chimera diluted from 10 μg/ml was used a positive control for binding to Jagged1. Results for 12 hybridoma supernatants showing binding of hybridoma supernatants to human/cynomolgus monkey DLL4 and human Jagged are shown in Table 3.

[10] = biological target: DLL4 extracellular domain (R&D systems, catalog #1506-D4/CF) (UniProt Q9NR61 27-529, limits assumed); experiment: cell-based or functional assay
Chain of DLL4 extracellular domain (R&D systems, catalog #1506-D4/CF) (Q9NR61 27-529 limits assumed): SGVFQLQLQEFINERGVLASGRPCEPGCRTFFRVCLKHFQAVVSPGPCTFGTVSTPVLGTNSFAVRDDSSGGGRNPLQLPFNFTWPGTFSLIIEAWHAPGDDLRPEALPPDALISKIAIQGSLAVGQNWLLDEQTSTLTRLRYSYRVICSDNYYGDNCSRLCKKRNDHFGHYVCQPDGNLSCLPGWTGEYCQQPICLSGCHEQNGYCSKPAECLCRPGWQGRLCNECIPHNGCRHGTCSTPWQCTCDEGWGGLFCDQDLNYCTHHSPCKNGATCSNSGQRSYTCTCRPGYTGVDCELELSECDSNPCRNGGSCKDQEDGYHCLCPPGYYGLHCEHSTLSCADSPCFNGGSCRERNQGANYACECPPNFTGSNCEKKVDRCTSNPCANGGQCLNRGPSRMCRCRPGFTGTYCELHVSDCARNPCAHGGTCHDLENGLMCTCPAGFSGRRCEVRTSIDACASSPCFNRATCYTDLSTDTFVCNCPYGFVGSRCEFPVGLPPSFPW

[11] = biological target: T2, human Jagged1; experiment: FMAT, hybridoma supernatant, 293T cells with human Jagged1
Description: as §3

Jagged1/293T X Geo mean [3] | Dll1/293T X Geo mean [4] | % inhibition at 0.020 nM [5] [%] | % inhibition at 0.070 nM [5] [%] | % inhibition at 0.21 nM [5] [%] | % inhibition at 0.62 nM [5] [%] | % inhibition at 1.9 nM [5] [%] | % inhibition at 5.6 nM [5] [%] | % inhibition at 16.7 nM [5] [%] | IC50 [5] [nM] | Dll1/mock ratio [6] | % inhibition n = 2 [7] [%] | % inhibition n = 3 [7] [%] | Mean % inhibition [7] [%] | Jagged1/mock ratio [8] | Count [9] | FL1 [9] | FL1 x count [9] | % inhibition 1 µg/ml, N = 1 (HUVEC proliferation on coated DLL4) [10] [%] | % inhibition 10 µg/ml, N = 1 (HUVEC proliferation on coated DLL4) [10] [%] | further results | Binder
– | – | – | – | – | – | – | – | – | – | – | – | – | – | – | – | – | – | – | – | EC50 [1]: 0.071 µg/mL; IC50 [2]: 0.17 µg/mL | B1
16.3 | 47 | 14 | 25 | 14 | 29 | 69 | 121 | 115 | 1.81 | 1.14 | 108 | 131 | 120 | 1.08 | 219 | 11300 | 2.47e+06 | 24 | 48 | % inhibition 1 µg/ml, AVERAGE (HUVEC proliferation on coated DLL4) [10]: 30%; % inhibition 1 µg/ml, N = 2 (HUVEC proliferation on coated DLL4) [10]: 35%; % inhibition 10 µg/ml, AVERAGE (HUVEC proliferation on coated DLL4) [10]: 52%; % inhibition 10 µg/ml, N = 2 (HUVEC proliferation on coated DLL4) [10]: 56%; Count [11]: 30; FL1 [11]: 1440; FL1 x count [11]: 43100 | B2
13.8 | 30.2 | 11 | 17 | 7 | -22 | 35 | 116 | 104 | 1.95 | 1.13 | 93 | 140 | 117 | 1.01 | 200 | 10400 | 2.08e+06 | 30 | 48 | Count [11]: 1; FL1 [11]: 2070; FL1 x count [11]: 2070 | B3
14.4 | 47 | 6 | -18 | 9 | 15 | 88 | 119 | 101 | 1.48 | 1.12 | 147 | 144 | 131 | 1.11 | 179 | 9520 | 1.76e+06 | 50 | 62 | % inhibition n = 1 [7]: 103%; % inhibition 1 µg/ml, AVERAGE (HUVEC proliferation on coated DLL4) [10]: 56%; % inhibition 1 µg/ml, N = 2 (HUVEC proliferation on coated DLL4) [10]: 62%; % inhibition 10 µg/ml, AVERAGE (HUVEC proliferation on coated DLL4) [10]: 74%; % inhibition 10 µg/ml, N = 2 (HUVEC proliferation on coated DLL4) [10]: 85%; Count [11]: 25; FL1 [11]: 988; FL1 x count [11]: 24700 | B4
